Results on 13 proteins are retold here after patent US20210238260.

What is called KM is the substrate concentration at which the rate is half of its maximum. By kcat is commonly meant the number of substrate molecules converted per active site and unit of time at saturation.

To fix the notation:
B1: FIXa-Y155F/K247N/N249S/R338E/T343R/R403E (protein)
chain 1: YNSGKLEEFVQGNLERECMEEKCSFEEAREVFENTERTTEFWKQYVDGDQCESNPCLNGGSCKDDINSYECWCPFGFEGKNCELDVTCNIKNGRCEQFCKNSADNKVVCSCTEGYRLAENQKSCEPAVPFPCGRVSVSQTSKLTR
chain 2: VVGGEDAKPGQFPWQVVLNGKVDAFCGGSIVNEKWIVTAAHCVETGVKITVVAGEHNIEETEHTEQNRSVIRIIPHHNYNAAINKYNHDIALLELDEPLVLNSYVTPICIADKEYTNIFLKFGSGYVSGWGRVFHKGRSALVLQYLRVPLVDRATCLESTKFRIYNNMFCAGFHEGGRDSCQGDSGGPHVTEVEGTSFLTGIISWGEECAMKGKYGIYTKVSEYVNWIKEKTKLT
B2: FIXa-Y155F/K247N/N249S/T343R/R403E/E410N (protein)
chain 1: YNSGKLEEFVQGNLERECMEEKCSFEEAREVFENTERTTEFWKQYVDGDQCESNPCLNGGSCKDDINSYECWCPFGFEGKNCELDVTCNIKNGRCEQFCKNSADNKVVCSCTEGYRLAENQKSCEPAVPFPCGRVSVSQTSKLTR
chain 2: VVGGEDAKPGQFPWQVVLNGKVDAFCGGSIVNEKWIVTAAHCVETGVKITVVAGEHNIEETEHTEQNRSVIRIIPHHNYNAAINKYNHDIALLELDEPLVLNSYVTPICIADKEYTNIFLKFGSGYVSGWGRVFHKGRSALVLQYLRVPLVDRATCLRSTKFRIYNNMFCAGFHEGGRDSCQGDSGGPHVTEVEGTSFLTGIISWGEECAMKGKYGIYTKVSEYVNWIKNKTKLT
B3: FIXa-Y155F/R318Y/R338E/R403E (protein)
chain 1: YNSGKLEEFVQGNLERECMEEKCSFEEAREVFENTERTTEFWKQYVDGDQCESNPCLNGGSCKDDINSYECWCPFGFEGKNCELDVTCNIKNGRCEQFCKNSADNKVVCSCTEGYRLAENQKSCEPAVPFPCGRVSVSQTSKLTR
chain 2: VVGGEDAKPGQFPWQVVLNGKVDAFCGGSIVNEKWIVTAAHCVETGVKITVVAGEHNIEETEHTEQKRNVIRIIPHHNYNAAINKYNHDIALLELDEPLVLNSYVTPICIADKEYTNIFLKFGSGYVSGWGRVFHKGYSALVLQYLRVPLVDRATCLESTKFTIYNNMFCAGFHEGGRDSCQGDSGGPHVTEVEGTSFLTGIISWGEECAMKGKYGIYTKVSEYVNWIKEKTKLT
B4: FIXa-Y155F/R338E/R403E/E410N (protein)
chain 1: YNSGKLEEFVQGNLERECMEEKCSFEEAREVFENTERTTEFWKQYVDGDQCESNPCLNGGSCKDDINSYECWCPFGFEGKNCELDVTCNIKNGRCEQFCKNSADNKVVCSCTEGYRLAENQKSCEPAVPFPCGRVSVSQTSKLTR
chain 2: VVGGEDAKPGQFPWQVVLNGKVDAFCGGSIVNEKWIVTAAHCVETGVKITVVAGEHNIEETEHTEQKRNVIRIIPHHNYNAAINKYNHDIALLELDEPLVLNSYVTPICIADKEYTNIFLKFGSGYVSGWGRVFHKGRSALVLQYLRVPLVDRATCLRSTKFTIYNNMFCAGFHEGGEDSCQGDSGGPHVTEVEGTSFLTGIISWGEECAMKGKYGIYTKVSEYVNWIKNKTKLT
B5: FIXa variant D104N/K106S/I251S/R318Y/R338E/R403E/E410N (protein)
chain 1: YNSGKLEEFVQGNLERECMEEKCSFEEAREVFENTERTTEFWKQYVDGDQCESNPCLNGGSCKDDINSYECWCPFGFEGKNCELDVTCNIKNGRCEQFCKNSANNSVVCSCTEGYRLAENQKSCEPAVPFPCGRVSVSQTSKLTR
chain 2: VVGGEDAKPGQFPWQVVLNGKVDAFCGGSIVNEKWIVTAAHCVETGVKITVVAGEHNIEETEHTEQKRNVSRIIPHHNYNAAINKYNHDIALLELDEPLVLNSYVTPICIADKEYTNIFLKFGSGYVSGWGRVFHKGYSALVLQYLRVPLVDRATCLESTKFTIYNNMFCAGFHEGGRDSCQGDSGGPHVTEVEGTSFLTGIISWGEECAMKGKYGIYTKVSEYVNWIKNKTKLT
B6: FIXa-Y155F/K247N/N249S/R338E/T343R/E410N (protein)
chain 1: YNSGKLEEFVQGNLERECMEEKCSFEEAREVFENTERTTEFWKQYVDGDQCESNPCLNGGSCKDDINSYECWCPFGFEGKNCELDVTCNIKNGRCEQFCKNSADNKVVCSCTEGYRLAENQKSCEPAVPFPCGRVSVSQTSKLTR
chain 2: VVGGEDAKPGQFPWQVVLNGKVDAFCGGSIVNEKWIVTAAHCVETGVKITVVAGEHNIEETEHTEQNRSVIRIIPHHNYNAAINKYNHDIALLELDEPLVLNSYVTPICIADKEYTNIFLKFGSGYVSGWGRVFHKGRSALVLQYLRVPLVDRATCLESTKFRIYNNMFCAGFHEGGRDSCQGDSGGPHVTEVEGTSFLTGIISWGEECAMKGKYGIYTKVSRYVNWIKNKTKLT
B7: FIXa variant Y259F/K265T/Y345T (protein)
chain 1: YNSGKLEEFVQGNLERECMEEKCSFEEAREVFENTERTTEFWKQYVDGDQCESNPCLNGGSCKDDINSYECWCPFGFEGKNCELDVTCNIKNGRCEQFCKNSADNKVVCSCTEGYRLAENQKSCEPAVPFPCGRVSVSQTSKLTR
chain 2: VVGGEDAKPGQFPWQVVLNGKVDAFCGGSIVNEKWIVTAAHCVETGVKITVVAGEHNIEETEHTEQKRNVIRIIPHHNFNAAINTYNHDIALLELDEPLVLNSYVTPICIADKEYTNIFLKFGSGYVSGWGRVFHKGRSALVLQYLRVPLVDRATCLRSTKFTITNNMFCAGFHEGGRDSCQGDSGGPHVTEVEGTSFLTGIISWGEECAMKGKYGIYTKVSRYVNWIKEKTKLT
B8: FIXa-Y155F/R318Y/R403E/E410N (protein)
chain 1: YNSGKLEEFVQGNLERECMEEKCSFEEAREVFENTERTTEFWKQYVDGDQCESNPCLNGGSCKDDINSYECWCPFGFEGKNCELDVTCNIKNGRCEQFCKNSADNKVVCSCTEGYRLAENQKSCEPAVPFPCGRVSVSQTSKLTR
chain 2: VVGGEDAKPGQFPWQVVLNGKVDAFCGGSIVNEKWIVTAAHCVETGVKITVVAGEHNIEETEHTEQKRNVIRIIPHHNYNAAINKYNHDIALLELDEPLVLNSYVTPICIADKEYTNIFLKFGSGYVSGWGRVFHKGYSALVLQYLRVPLVDRATCLRSTKFTIYNNMFCAGFHEGGRDSCQGDSGGPHVTEVEGTSFLTGIISWGEECAMKGKYGIYTKVSEYVNWIKNKTKLT
B9: FIXa variant Y155F/K228N/R318Y/R338E/R403E/E410N (protein)
chain 1: YNSGKLEEFVQGNLERECMEEKCSFEEAREVFENTERTTEFWKQYVDGDQCESNPCLNGGSCKDDINSYECWCPFGFEGKNCELDVTCNIKNGRCEQFCKNSADNKVVCSCTEGYRLAENQKSCEPAVPFPCGRVSVSQTSKLTR
chain 2: VVGGEDAKPGQFPWQVVLNGKVDAFCGGSIVNEKWIVTAAHCVETGVNITVVAGEHNIEETEHTEQKRNVIRIIPHHNYNAAINKYNHDIALLELDEPLVLNSYVTPICIADKEYTNIFLKFGSGYVSGWGRVFHKGYSALVLQYLRVPLVDRATCLESTKFTIYNNMFCAGFHEGGRDSCQGDSGGPHVTEVEGTSFLTGIISWGEECAMKGKYGIYTKVSEYVNWIKNKTKLT
B10: FIXa variant I251S/R318Y/R338E/R403E/E410N (protein)
chain 1: YNSGKLEEFVQGNLERECMEEKCSFEEAREVFENTERTTEFWKQYVDGDQCESNPCLNGGSCKDDINSYECWCPFGFEGKNCELDVTCNIKNGRCEQFCKNSADNKVVCSCTEGYRLAENQKSCEPAVPFPCGRVSVSQTSKLTR
chain 2: VVGGEDAKPGQFPWQVVLNGKVDAFCGGSIVNEKWIVTAAHCVETGVKITVVAGEHNIEETEHTEQKRNVSRIIPHHNYNAAINKYNHDIALLELDEPLVLNSYVTPICIADKEYTNIFLKFGSGYVSGWGRVFHKGYSALVLQYLRVPLVDRATCLESTKFTIYNNMFCAGFHEGGRDSCQGDSGGPHVTEVEGTSFLTGIISWGEECAMKGKYGIYTKVSEYVNWIKNKTKLT
B11: FIXa-K247N/N249S/R338E/T343R/R403E (protein)
chain 1: YNSGKLEEFVQGNLERECMEEKCSFEEAREVFENTERTTEFWKQYVDGDQCESNPCLNGGSCKDDINSYECWCPFGFEGKNCELDVTCNIKNGRCEQFCKNSADNKVVCSCTEGYRLAENQKSCEPAVPFPCGRVSVSQTSKLTR
chain 2: VVGGEDAKPGQFPWQVVLNGKVDAFCGGSIVNEKWIVTAAHCVETGVKITVVAGEHNIEETEHTEQNRSVIRIIPHHNYNAAINKYNHDIALLELDEPLVLNSYVTPICIADKEYTNIFLKFGSGYVSGWGRVFHKGRSALVLQYLRVPLVDRATCLESTKFRIYNNMFCAGFHEGGRDSCQGDSGGPHVTEVEGTSFLTGIISWGEECAMKGKYGIYTKVSEYVNWIKEKTKLT
B12: FIXa variant D85N/K228N/R318Y/R338E/R403E/E410N (protein)
chain 1: YNSGKLEEFVQGNLERECMEEKCSFEEAREVFENTERTTEFWKQYVDGDQCESNPCLNGGSCKDDINSYECWCPFGFEGKNCELNVTCNIKNGRCEQFCKNSADNKVVCSCTEGYRLAENQKSCEPAVPFPCGRVSVSQTSKLTR
chain 2: VVGGEDAKPGQFPWQVVLNGKVDAFCGGSIVNEKWIVTAAHCVETGVNITVVAGEHNIEETEHTEQKRNVIRIIPHHNYNAAINKYNHDIALLELDEPLVLNSYVTPICIADKEYTNIFLKFGSGYVSGWGRVFHKGYSALVLQYLRVPLVDRATCLESTKFTIYNNMFCAGFHEGGRDSCQGDSGGPHVTEVEGTSFLTGIISWGEECAMKGKYGIYTKVSEYVNWIKNKTKLT
B13: FIXa-K247N/N249S/R338E/T343R/E410N (protein)
chain 1: YNSGKLEEFVQGNLERECMEEKCSFEEAREVFENTERTTEFWKQYVDGDQCESNPCLNGGSCKDDINSYECWCPFGFEGKNCELDVTCNIKNGRCEQFCKNSADNKVVCSCTEGYRLAENQKSCEPAVPFPCGRVSVSQTSKLTR
chain 2: VVGGEDAKPGQFPWQVVLNGKVDAFCGGSIVNEKWIVTAAHCVETGVKITVVAGEHNIEETEHTEQNRSVIRIIPHHNYNAAINKYNHDIALLELDEPLVLNSYVTPICIADKEYTNIFLKFGSGYVSGWGRVFHKGRSALVLQYLRVPLVDRATCLESTKFRIYNNMFCAGFHEGGRDSCQGDSGGPHVTEVEGTSFLTGIISWGEECAMKGKYGIYTKVSRYVNWIKNKTKLT

The series deals with Factor X (FX), P00742.
Factor X (FX), P00742, sequence (P00742 whole entry, looked up): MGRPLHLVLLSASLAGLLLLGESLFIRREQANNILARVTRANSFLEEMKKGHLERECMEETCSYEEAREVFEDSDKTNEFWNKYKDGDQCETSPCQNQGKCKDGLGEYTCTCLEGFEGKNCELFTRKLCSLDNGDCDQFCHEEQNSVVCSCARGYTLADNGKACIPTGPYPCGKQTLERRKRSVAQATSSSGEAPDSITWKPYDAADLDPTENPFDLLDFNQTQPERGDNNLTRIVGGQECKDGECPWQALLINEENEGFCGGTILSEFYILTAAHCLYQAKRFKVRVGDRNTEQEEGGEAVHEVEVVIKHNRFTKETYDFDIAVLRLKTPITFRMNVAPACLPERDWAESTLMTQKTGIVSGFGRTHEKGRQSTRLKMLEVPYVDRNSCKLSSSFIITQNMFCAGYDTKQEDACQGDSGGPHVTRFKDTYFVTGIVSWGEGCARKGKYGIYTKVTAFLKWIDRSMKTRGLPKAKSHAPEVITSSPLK
For the protein B1, the “% of WT kcat/KM” value stood at 1269%; the KM is 0.0251 µM; the kcat (s^-1) of FX activation by FIXa variant in the Xase complex (FVIIIa, PC/PS vesicles, Ca2+), fluorogenic FXa read-out stood at 14.6 s⁻¹; the kcat/KM for FX activation (Xase: FVIIIa, PC/PS vesicles, Ca2+) amounted to 5.9e+08 M⁻¹ s⁻¹.
Take B2: the “% of WT kcat/KM” value is 635%; the KM amounted to 0.052 µM; the kcat (s^-1) of FX activation by FIXa variant in the Xase complex (FVIIIa, PC/PS vesicles, Ca2+), fluorogenic FXa read-out is 15 s⁻¹; the kcat/KM for FX activation (Xase: FVIIIa, PC/PS vesicles, Ca2+) was found to be 2.9e+08 M⁻¹ s⁻¹.
For B3, the catalytic constant (kcat) came to 5.1 s⁻¹.
B4: the kcat came to 5.9 s⁻¹.
For the protein B5, the kcat stood at 5.5 s⁻¹.
As to B6, the “% of WT kcat/KM” value was found to be 391%; the KM was found to be 0.027 µM; the kcat (s^-1) of FX activation by FIXa variant in the Xase complex (FVIIIa, PC/PS vesicles, Ca2+), fluorogenic FXa read-out was 4.8 s⁻¹; the kcat/KM for FX activation (Xase: FVIIIa, PC/PS vesicles, Ca2+) was 1.8e+08 M⁻¹ s⁻¹.
On to B7, for which the kcat worked out at 1.7 s⁻¹.
On to B8, for which the kcat amounted to 2.9 s⁻¹.
The same measure, in the same setting: next, B9: 6.7 s⁻¹.
Take B10: the kcat was 4.8 s⁻¹.
For B11, the “% of WT kcat/KM” value is 1215%; the KM was 0.0263 µM; the “catalytic activity (kcat/KM) for activation of FX” value was “improved activity when combined with other mutations”; the kcat (s^-1) of FX activation by FIXa variant in the Xase complex (FVIIIa, PC/PS vesicles, Ca2+), fluorogenic FXa read-out was 14.6 s⁻¹. Besides, the kcat/KM for FX activation (Xase: FVIIIa, PC/PS vesicles, Ca2+) stood at 5.6e+08 M⁻¹ s⁻¹.
On to B12, for which the kcat worked out at 6 s⁻¹.
In the case of B13, the “% of WT kcat/KM” value came out at 676%; the KM is 0.0275 µM; the kcat (s^-1) of FX activation by FIXa variant in the Xase complex (FVIIIa, PC/PS vesicles, Ca2+), fluorogenic FXa read-out turned out to be 7.9 s⁻¹; the kcat/KM for FX activation (Xase: FVIIIa, PC/PS vesicles, Ca2+) came out at 3.1e+08 M⁻¹ s⁻¹.
